Laboratory results published in patent publication US20080020377A1.

Columns and labels:
[1] = target: Tet repressor protein from class B [TetR(B)] (Escherichia coli) (UniProt P04483); assay: cell-based or functional assay
[2] = target: TetR(B/D)188-208 (UniProt P0ACT4); assay: cell-based or functional assay

Substance	factor of induction of β-galactosidase activity at 60 µM IPTG [1]	induction of β-galactosidase activity against the C-terminal fusion TrxA-pepBs1 (fold higher than the C-terminal fusion) [1]	β-galactosidase activity at 60 µM IPTG [2]
PepBs1-TrxA (N-terminal fusion of pepBs1 to Escherichia coli thioredoxin A) (from UniProt P0AA25 2-109)	40 fold	3	–
SbmC(C)-pepBs1 fusion protein (from UniProt P33012 1-157)	–	–	4 fold
TrxA-pepBs1 (C-terminal fusion of pepBs1 to Escherichia coli thioredoxin A) (from UniProt P0AA25 2-109)	14 fold	–	–
